Experimental data from the supplement of paper PMC7877785.
± gives the uncertainty stated by the source.

Experiment: self-splicing fitness, log relative to wild type (ln ratio); higher = more splicing; Tetrahymena group I intron in knt gene, E. coli kanamycin selection, DiMSum; sequences stand for … in CUCUCU…GGAGGGAAAAGUUAUCAGGCAUGCACCUGGUAGCUAGUCUUUAAACCAAUAGAUUGCAUCGGUUUAAAAGGCAAGACCGUCAAAUUGCGGGAAAGGGGUCAACAGCCGUUCAGUACCAAGUCUCAGGGGAAACUUUGAGAUGGCCUUGCAAAGGGUAUGGUAAUAAGCUGACGGACAUGGUCCUAACCACGCAGCCAAGUCCUAAGUCAACAGAUCUUCUGUUGAUAUGGAUGCAGUUCACAGACUAAAUGUCGGUCGGGGAAGAUGUAUUCUUCUCAUAAGAUAUAGUCGGACCUCUCCUUAAUGGGAGCUAGCGGAUGAAGUGAUGCAACACUGGAGCCGCUGGGAACUAAUUUGUAUGCGAAAGUAUAUUGAUUAGUUUUGGAGUACUCGUGGUCG
Summary of the method: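 DiMSum derived fitness as the error-weighted combination of fold changes across replicates, kanamycin versus no kanamycin, normalised to wild type. E. coli BL21(DE3) held the library, which randomised all eight P1ex-region intron nucleotides within the knt kanamycin-resistance gene on pET-22b(+). Six replicate transformations grew overnight at 37°C or 30°C on LB agar with or without 25 μg/mL kanamycin, also containing 100 μg/mL carbenicillin, 50 μM IPTG and 0.2% rhamnose, and pooled colonies were amplicon-sequenced on an Illumina HiSeq 2500.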

Row | Sequence | self-splicing fitness (ln) (30 °C) | self-splicing fitness (ln) (37 °C)
1 | UUACAGCAAUAUUACGGGAC | -4.47 ± 0.33 | -2.07 ± 0.25
2 | ACUAAGCAAUAUUACGUGAU | -1.65 ± 0.062 | -1.21 ± 0.077
3 | CCUAAGCAAUAUUACGUCCG | -1.34 ± 0.11 | -0.638 ± 0.11
4 | ACGGAGCAAUAUUACGCGGU | -2.86 ± 0.25 | -1.03 ± 0.31
5 | GUGUAGCAAUAUUACGACAA | -0.665 ± 0.14 | -0.365 ± 0.21
6 | GGCUAGCAAUAUUACGGCAG | -1.12 ± 0.23 | -0.728 ± 0.38
7 | AGUGAGCAAUAUUACGGGGA | -3.7 ± 0.25 | -2 ± 0.21
8 | AUAUAGCAAUAUUACGGUUC | -3.14 ± 0.17 | -2.5 ± 0.24
9 | AAUUAGCAAUAUUACGUUUC | -2.89 ± 0.23 | -1.57 ± 0.23
10 | ACCUAGCAAUAUUACGGCUU | -0.695 ± 0.076 | 0.252 ± 0.098
11 | GAAAAGCAAUAUUACGUCAU | -1.82 ± 0.088 | -0.42 ± 0.097
12 | UUAAAGCAAUAUUACGUACG | 0.121 ± 0.083 | 0.746 ± 0.1
13 | GACGAGCAAUAUUACGGUUG | -2.82 ± 0.13 | -1.76 ± 0.13
14 | AUUAAGCAAUAUUACGCGAA | -1.32 ± 0.11 | -0.882 ± 0.13
15 | UGGUAGCAAUAUUACGAGAA |  | -1.11 ± 0.36
16 | GUUUAGCAAUAUUACGAUCA | -1.38 ± 0.31 | -0.619 ± 0.16
17 | UCGAAGCAAUAUUACGGUGU | -2.05 ± 0.094 | -1.62 ± 0.15
18 | GGUCAGCAAUAUUACGGCUC | -2.39 ± 0.21 | -1.68 ± 0.3
19 | AAAUAGCAAUAUUACGGAAG | -3.63 ± 0.25 | -2.15 ± 0.18
20 | GGCAAGCAAUAUUACGUGUC | -2.42 ± 0.11 | -3.08 ± 0.17

Row | Sequence | self-splicing fitness (ln) (30 °C) | self-splicing fitness (ln) (37 °C)
21 | UAAUAGCAAUAUUACGUGUC | -3.02 ± 0.23 | -2.44 ± 0.3
22 | UCGCAGCAAUAUUACGGUGU |  | -2.63 ± 0.24
23 | UCACAGCAAUAUUACGGGUU | -3.77 ± 0.16 | -2.33 ± 0.12
24 | AUGCAGCAAUAUUACGGCAU | -3.9 ± 0.19 | -2.61 ± 0.15
25 | AACGAGCAAUAUUACGUGUU |  | -3.62 ± 0.34
26 | AUAUAGCAAUAUUACGCAUA | -2.02 ± 0.26 | -0.946 ± 0.26
27 | UUCUAGCAAUAUUACGUAGU |  | -1.6 ± 0.24
28 | UCGGAGCAAUAUUACGGGCA | -2.38 ± 0.16 | -0.971 ± 0.13
29 | AAUUAGCAAUAUUACGCUGU | -1.44 ± 0.16 | -1.26 ± 0.2
30 | ACGGAGCAAUAUUACGUAAG | -3.18 ± 0.2 | -1.82 ± 0.24
31 | UUAUAGCAAUAUUACGAUCG | -0.934 ± 0.12 | -0.581 ± 0.14
32 | GUGCAGCAAUAUUACGCCGG | -2.21 ± 0.41 | 
33 | GUCCAGCAAUAUUACGGAUU | -2.84 ± 0.09 | -0.789 ± 0.091
34 | AUUUAGCAAUAUUACGACUA | -0.0865 ± 0.18 | -0.454 ± 0.15
35 | AGUUAGCAAUAUUACGGAGU | -3.29 ± 0.3 | -1.3 ± 0.2
36 | UCGCAGCAAUAUUACGCGUG | -3.34 ± 0.15 | -1.44 ± 0.14
37 | UGACAGCAAUAUUACGUUCU | -0.552 ± 0.071 | -0.321 ± 0.089
38 | GGGAAGCAAUAUUACGCCUA | -0.134 ± 0.2 | -0.887 ± 0.28
39 | AGAAAGCAAUAUUACGUCUG | -0.808 ± 0.043 | -0.1 ± 0.063
